Each binder was assayed against HLA-A*11:01 on TAP2-KO HLA class I monoallelic TISI cells (human | human (endogenous in TISI)) (assay: flow cytometry on cells).

Binder | ΔHLA (% control) [%]
VVVGAGDVGK | 195
VVGAAGVGK [KRAS_G12A epitope peptide …] | 218
VVGASGVGK [KRAS_G12S epitope peptide …] | 219
VVGACGVGK [KRAS_G12C epitope peptide …] | 234

The remaining lines, values ahead:

ΔHLA (% control) [%] | Binder
181 | VVGAGDVGK
124 | ISTRDPLSK
107 | SSCMGSMNR [TP53_G245S epitope peptide …]
127 | KAISTRDPLSK

— publication PMC10320429
